From patent US20250002581A1 (VERSITECH, published 2025) come the findings set out here.

Test [1] addresses T1, Δ42PD1 (human).
T1 construct: whole, on cells
Put plainly: flow cytometry on 293T-Δ42PD1 cells, antibody 10 ng/ml; average ± deviation.

In test [2] the target is T1, Δ42PD1. Put plainly: flow cytometry on 293T-Δ42PD1 cells, antibody 10 ng/ml, second anti-human Fc antibody. The source says:
Human IgG1 isotype was used as a negative control.
To exploit the therapeutic activities of CH101 variants, we made various modifications in the constant regions of the chimeric version or humanized version of CH101, thus resulting a serial of CH101 humanized antibodies, including CH101-huIgG1(N297A), CH101-huIgG1(L/S), CH101-huIgG4, huCH101-IgG1, huCH101-IgG4, CH101-huIgG1 (chimeric CH101). The original CH101 (parental, fully murine) was included as the positive control for these humanized versions. […] All humanized antibodies could recognize Δ42PD1 expressed on the cell surface but with different specificity (FIGS. 3A-3I). The detailed statistical analysis elucidated the activity of versions of humanized antibodies in interacting with Δ42PD1 at different specificity and sensitivity (Table 1). […] Due to the limited expression of chimeric versions of CH101 with Fc engineering, including CH101-huIgG1(N297A), CH101-huIgG1(L/S) and CH101-huIgG4, the amount of these antibody was insufficient for fluorescence labelling.

Another test has as its target T2, PD-1-GFP (UniProt Q15116 25-288).
T2 construct: whole, on cells; Expressed from a PCDH plasmid in RPMI8866 B cells by electroporation; also called PD-1 expressed on human B cells; not shown: GFP
Description: flow cytometry on RPMI8866 B cells transfected with PD-1-GFP. How it is done:
To test the specificity of anti-Δ42PD1 antibody CH34 as compared with the anti-PD1 antibody (EH12.2H7), RPMI8866 B cells are transfected with a plasmid PCDH expressing Δ42PD-1-GFP, PD-1-GFP or GFP along by Neon electroporation system. Untransfected RPMI8866 B cells are included as controls. Two days after the transfection, the transfection efficiency is determined by flow cytometry analysis on GFP (upper panel). The specificity of anti-Δ42PD1 antibody CH34 and anti-PD1 antibody EH12.2H7 is measured by analysis on PD-1 and Δ42PD1 expression (lower panel).
A general note: In flow cytometry, cells or beads pass a laser one at a time.

The next test deals with T3, PD1 (human, UniProt Q15116 25-288).
T3 construct: whole, on cells; also called CD279
T3 sequence (Q15116 25-288): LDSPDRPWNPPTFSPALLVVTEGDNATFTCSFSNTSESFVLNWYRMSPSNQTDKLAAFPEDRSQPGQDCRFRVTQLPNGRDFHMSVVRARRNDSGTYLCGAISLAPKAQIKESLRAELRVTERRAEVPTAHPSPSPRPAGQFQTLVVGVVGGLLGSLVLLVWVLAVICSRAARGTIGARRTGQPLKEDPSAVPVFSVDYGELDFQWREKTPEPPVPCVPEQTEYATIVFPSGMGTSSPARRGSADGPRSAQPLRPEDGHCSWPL
Put plainly: flow cytometry on 293T cells transfected with a PCDH plasmid expressing PD-1. The method, then:
Untransfected cells are included as controls. Two days after the transfection, the specificity of anti-Δ42PD1 antibody CH34 and anti-PD1 antibody EH12.2H7 is measured by analysis on PD-1 and Δ42PD1 expression.

T2 sequence (Q15116 25-288): as above

B1: hufrCH101-IgG1 (antibody)
heavy: not shown
light: DVVMTQSPLSLPVTLGQPASISCTSSQSLLDRDGETFMNWFQQRPGQSPRRLIYLVSKLDFGVPDRFSGSGSGTDFTLKISRVEAEDVGVYYCWQGTHFPLTFGGGTKVEIKRTVAAPSVFIFPPSDEQLKSGTASVVCLLNNFYPREAKVQWKVDNALQSGNSQESVTEQDSKDSTYSLSSTLTLSKADYEKHKVYACEVTHQGLSSPVTKSFNRGEC
notes: 97.0% humanized CH101 (641/661) by CDR grafting, human IgG1; also called huCH101-IgG1; huCH101
Regarding B1, the “293T-Δ42PD1 (%)” value with Δ42PD1 [1] is 45.5%.

B2: CH101-huIgG1(N297A) (antibody)
heavy: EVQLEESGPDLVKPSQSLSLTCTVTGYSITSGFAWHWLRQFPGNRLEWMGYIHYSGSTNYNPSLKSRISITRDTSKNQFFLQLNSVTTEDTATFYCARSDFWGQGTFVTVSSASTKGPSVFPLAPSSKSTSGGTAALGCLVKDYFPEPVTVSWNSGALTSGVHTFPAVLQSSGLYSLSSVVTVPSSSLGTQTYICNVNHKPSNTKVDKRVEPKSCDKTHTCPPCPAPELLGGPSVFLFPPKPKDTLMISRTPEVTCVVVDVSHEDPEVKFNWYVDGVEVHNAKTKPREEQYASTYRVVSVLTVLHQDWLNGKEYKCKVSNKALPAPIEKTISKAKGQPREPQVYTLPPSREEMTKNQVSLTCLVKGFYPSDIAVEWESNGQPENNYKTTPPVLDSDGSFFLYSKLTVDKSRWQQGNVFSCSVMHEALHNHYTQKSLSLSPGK
light: DVVMTQTPLNLSVTFGQPVSISCTSSQSLLDRDGETFMNWLFQRPGQSPKRLIYLVSKLDFGVPDRFTGSGSGTDFTLKISRVEAEDLGIYYCWQGTHFPLTFGGGTKLEIKRTVAAPSVFIFPPSDEQLKSGTASVVCLLNNFYPREAKVQWKVDNALQSGNSQESVTEQDSKDSTYSLSSTLTLSKADYEKHKVYACEVTHQGLSSPVTKSFNRGEC
notes: Detected with a second anti-human Fc antibody
B2: in the test with Δ42PD1 [2], the “293T-Δ42PD1 (%)” value is 68.3%.

B3: CH101-huIgG1(L/S) (antibody)
heavy: EVQLEESGPDLVKPSQSLSLTCTVTGYSITSGFAWHWLRQFPGNRLEWMGYIHYSGSTNYNPSLKSRISITRDTSKNQFFLQLNSVTTEDTATFYCARSDFWGQGTFVTVSS
light: DVVMTQTPLNLSVTFGQPVSISCTSSQSLLDRDGETFMNWLFQRPGQSPKRLIYLVSKLDFGVPDRFTGSGSGTDFTLKISRVEAEDLGIYYCWQGTHFPLTFGGGTKLEIKRTVAAPSVFIFPPSDEQLKSGTASVVCLLNNFYPREAKVQWKVDNALQSGNSQESVTEQDSKDSTYSLSSTLTLSKADYEKHKVYACEVTHQGLSSPVTKSFNRGEC
notes: Detected with a second anti-human Fc antibody; not shown: human IgG1 constant region with a modification printed only as '(L/S)'
As to B3, the “293T-Δ42PD1 (%)” value in the test with Δ42PD1 [2] was found to be 65.7%.

B4: CH101-huIgG1 (antibody)
heavy: not shown
light: DVVMTQTPLNLSVTFGQPVSISCTSSQSLLDRDGETFMNWLFQRPGQSPKRLIYLVSKLDFGVPDRFTGSGSGTDFTLKISRVEAEDLGIYYCWQGTHFPLTFGGGTKLEIKRTVAAPSVFIFPPSDEQLKSGTASVVCLLNNFYPREAKVQWKVDNALQSGNSQESVTEQDSKDSTYSLSSTLTLSKADYEKHKVYACEVTHQGLSSPVTKSFNRGEC
notes: also called chimeric CH101; CH101-IgG1
B4: the “293T-Δ42PD1 (%)” value with Δ42PD1 [1] was determined as 70.1%.

B5: CH101-huIgG4 (antibody)
heavy: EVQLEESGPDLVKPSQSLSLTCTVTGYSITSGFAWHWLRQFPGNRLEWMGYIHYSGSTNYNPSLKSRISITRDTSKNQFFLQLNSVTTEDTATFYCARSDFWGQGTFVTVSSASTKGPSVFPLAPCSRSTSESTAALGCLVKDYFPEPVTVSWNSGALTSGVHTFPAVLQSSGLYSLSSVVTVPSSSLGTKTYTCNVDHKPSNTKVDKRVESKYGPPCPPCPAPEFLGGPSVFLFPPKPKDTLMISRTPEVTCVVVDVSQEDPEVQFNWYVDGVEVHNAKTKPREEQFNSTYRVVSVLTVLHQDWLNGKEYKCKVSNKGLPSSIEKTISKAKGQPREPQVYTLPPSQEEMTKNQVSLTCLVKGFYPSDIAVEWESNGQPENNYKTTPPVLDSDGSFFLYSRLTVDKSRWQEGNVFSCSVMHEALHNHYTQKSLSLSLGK
light: DVVMTQTPLNLSVTFGQPVSISCTSSQSLLDRDGETFMNWLFQRPGQSPKRLIYLVSKLDFGVPDRFTGSGSGTDFTLKISRVEAEDLGIYYCWQGTHFPLTFGGGTKLEIKRTVAAPSVFIFPPSDEQLKSGTASVVCLLNNFYPREAKVQWKVDNALQSGNSQESVTEQDSKDSTYSLSSTLTLSKADYEKHKVYACEVTHQGLSSPVTKSFNRGEC
notes: Chimeric CH101 on human IgG4; Detected with a second anti-human Fc antibody; also called CH101-IgG4
With B5, the “293T-Δ42PD1 (%)” value with Δ42PD1 [2] is 62.8%.

B6: murine CH101 (antibody, V domains shown)
VH: EVQLEESGPDLVKPSQSLSLTCTVTGYSITSGFAWHWLRQFPGNRLEWMGYIHYSGSTNYNPSLKSRISITRDTSKNQFFLQLNSVTTEDTATFYCARSDFWGQGTFVTVSS
VL: DVVMTQTPLNLSVTFGQPVSISCTSSQSLLDRDGETFMNWLFQRPGQSPKRLIYLVSKLDFGVPDRFTGSGSGTDFTLKISRVEAEDLGIYYCWQGTHFPLTFGGGTKLEIK
notes: Hybridoma-derived, fully murine monoclonal antibody; a mouse IgG1 control was used beside it in vivo; also called parental murine CH101; original CH101 (parental, fully murine)
For the molecule B6, the “293T-Δ42PD1 (%)” value in the test with Δ42PD1 [1] came out at 59.2%.

B7: anti-Δ42PD1 antibody CH34 (antibody, mouse IgG2b, kappa, V domains shown)
VH: EVKLVESGGGLVQPGGSRKLSCAASGFTFSDYGMAWVRQAPGKGPEWVAFISSLAYTIYYADTVTGRFTISRENAKNTLYLEMSSLRSEDTAMYYCARGGAGFAYWGQGTLVTVSA
VL: DIQMTQSSSYLSVSLGGRVTITCKASDHINNWLAWYQQKPGNAPRLLISGATSLETGVPSRFSGSGSGKDYTLSITSLQTEDVATYYCQQYWSTPWTFGGGTKLEIKR
notes: Murine monoclonal antibody (msIgG2b isotype control used beside it); both are entered as this one molecule; also called murine CH34; mouse CH34 mAb
Take B7: the binding result with PD-1-GFP and with PD1 was “no binding” throughout.
